Paper PMC3828522 (Genes & Development, 2013)

What was measured:
[1] = biological target: biotin-YY1 spacer peptide (human, UniProt P25490 199-228, biotin (position not given)); experiment: SPR
[2] = biological target: full-length Pho protein (EMSA) (Drosophila melanogaster, UniProt Q8ST83 1-520); experiment: native gel or EMSA
[3] = biological target: biotin-Pho spacer peptide (Drosophila melanogaster, UniProt Q8ST83 145-172, biotin (position not given)); experiment: SPR
Chain of biotin-Pho spacer peptide (Q8ST83 145-172): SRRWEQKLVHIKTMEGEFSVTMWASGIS

Chain of biotin-YY1 spacer peptide (P25490 199-228): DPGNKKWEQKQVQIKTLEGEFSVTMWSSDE
Chain of full-length Pho protein (EMSA) (Q8ST83 whole entry): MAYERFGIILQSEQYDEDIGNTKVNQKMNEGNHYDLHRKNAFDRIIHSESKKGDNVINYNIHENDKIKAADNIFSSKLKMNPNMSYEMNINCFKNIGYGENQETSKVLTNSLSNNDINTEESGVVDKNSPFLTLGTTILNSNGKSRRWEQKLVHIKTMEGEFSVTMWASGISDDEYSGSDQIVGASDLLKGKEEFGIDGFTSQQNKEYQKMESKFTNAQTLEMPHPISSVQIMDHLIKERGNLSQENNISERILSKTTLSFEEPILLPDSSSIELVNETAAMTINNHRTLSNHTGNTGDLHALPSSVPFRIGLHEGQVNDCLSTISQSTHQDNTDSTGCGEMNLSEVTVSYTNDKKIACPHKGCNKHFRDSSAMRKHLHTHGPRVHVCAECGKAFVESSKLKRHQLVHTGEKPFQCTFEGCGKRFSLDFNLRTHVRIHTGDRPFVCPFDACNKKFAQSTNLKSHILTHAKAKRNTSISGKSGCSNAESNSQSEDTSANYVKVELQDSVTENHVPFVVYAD

| fold weaker affinity than the Drosophila complex [1] [fold] | Binder | other results |
| --- | --- | --- |
| ~50 | L3MBTL2 4MBT domain, human (domain or fragment) TGQDALVLGFDWGKFLKDHSYKAAPVSCFKHVPLYDQWEDVMKGMKVEVLNSDAVLPSRVYWIASVIQTAGYRVLLRYEGFENDASHDFWCNLGTVDVHPIGWCAINSKILVPPRTIHAKFTDWKGYLMKRLVGSRTLPVDFHIKMVESMKYPFRQGMRLEVVDKSQVSRTRMAVVDTVIGGRLRLLYEDGDSDDDFWCHMWSPLIHPVGWSRRVGHGIKMSERRSDMAHHPTFRKIYCDAVPYLFKKVRAVYTEGGWFEEGMKLEAIDPLNLGNICVATVCKVLLDGYLMICVDGGPSTDGLDWFCYHASSHAIFPATFCQKNDIELTPPKGYEAQTFNWENYLEKTKSKAAPSRLFNMDCPNHGFKVGMKLEAVDLMEPRLICVATVKRVVHRLLSIHFDGWDSEYDQWVDCESPDIYPVGWCELTGYQLQPPVAAEPATPLKAKEATKKKKKQ | – |
| – | Sfmbt 4MBT domain (Sfmbt 531-980), wild type (domain or fragment, Drosophila melanogaster, UniProt Q9VK33 531-980, looked up) DPTHSYDWLPRLSKENFNAAPVTCFPHAPGCEVWDNLGVGMKVEVENTDCDSIEVIQPGQTPTSFWVATILEIKGYKALMSYEGFDTDSHDFWVNLCNAEVHSVGWCATRGKPLIPPRTIEHKYKDWKDFLVGRLSGARTLPSNFYNKINDSLQSRFRLGLNLECVDKDRISQVRLATVTKIVGKRLFLRYFDSDDGFWCHEDSPIIHPVGWATTVGHNLAAPQDYLERMLAGREAMIEVHEDDATIELFKMNFTFDEYYSDGKTNSFVEGMKLEAVDPLNLSSICPATVMAVLKFGYMMIRIDSYQPDASGSDWFCYHEKSPCIFPAGFCSVNNISVTPPNGYDSRTFTWEGYLRDTGAVAAGQHLFHRIIPDHGFEVGMSLECADLMDPRLVCVATVARVVGRLLKVHFDGWTDEYDQWLDCESADIYPVGWCVLVNHKLEGPPRVAH | binding result [2]: binds |
| – | Sfmbt 4MBT S633P/S673P (domain or fragment, Drosophila melanogaster, UniProt Q9VK33 531-980, looked up) DPTHSYDWLPRLSKENFNAAPVTCFPHAPGCEVWDNLGVGMKVEVENTDCDSIEVIQPGQTPTSFWVATILEIKGYKALMSYEGFDTDSHDFWVNLCNAEVHPVGWCATRGKPLIPPRTIEHKYKDWKDFLVGRLSGARTLPPNFYNKINDSLQSRFRLGLNLECVDKDRISQVRLATVTKIVGKRLFLRYFDSDDGFWCHEDSPIIHPVGWATTVGHNLAAPQDYLERMLAGREAMIEVHEDDATIELFKMNFTFDEYYSDGKTNSFVEGMKLEAVDPLNLSSICPATVMAVLKFGYMMIRIDSYQPDASGSDWFCYHEKSPCIFPAGFCSVNNISVTPPNGYDSRTFTWEGYLRDTGAVAAGQHLFHRIIPDHGFEVGMSLECADLMDPRLVCVATVARVVGRLLKVHFDGWTDEYDQWLDCESADIYPVGWCVLVNHKLEGPPRVAH | fold decrease in binding affinity against the wild type [3]: 2 fold |
| ~50 | MBTD1 4MBT domain, human (domain or fragment) AKTKAAVSMEGFSWGNYINSNSFIAAPVTCFKHAPMGTCWGDISENVRVEVPNTDCSLPTKVFWIAGIVKLAGYNALLRYEGFENDSGLDFWCNICGSDIHPVGWCAASGKPLVPPRTIQHKYTNWKAFLVKRLTGAKTLPPDFSQKVSESMQYPFKPCMRVEVVDKRHLCRTRVAVVESVIGGRLRLVYEESEDRTDDFWCHMHSPLIHHIGWSRSIGHRFKRSDITKKQDGHFDTPPHLFAKVKEVDQSGEWFKEGMKLEAIDPLNLSTICVATIRKVLADGFLMIGIDGSEAADGSDWFCYHATSPSIFPVGFCEINMIELTPPRGYTKLPFKWFDYLRETGSIAAPVKLFNKDVPNHGFRVGMKLEAVDLMEPRLICVATVTRIIHRLLRIHFDGWEEEYDQWVDCESPDLYPVGWCQLTGYQLQPPASQSSR | – |
